Experiments:
HY5 = target: T1, HY5 (Arabidopsis thaliana, UniProt O24646 1-168); experiment: EMSA
T1 sequence: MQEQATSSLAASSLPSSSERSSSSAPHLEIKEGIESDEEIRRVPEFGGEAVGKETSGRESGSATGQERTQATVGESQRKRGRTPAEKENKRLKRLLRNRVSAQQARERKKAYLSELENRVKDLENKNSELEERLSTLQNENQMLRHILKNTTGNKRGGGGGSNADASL

RGA = target: T2, RGA (Arabidopsis thaliana, UniProt Q9SLH3 1-587); experiment: EMSA
T2 sequence: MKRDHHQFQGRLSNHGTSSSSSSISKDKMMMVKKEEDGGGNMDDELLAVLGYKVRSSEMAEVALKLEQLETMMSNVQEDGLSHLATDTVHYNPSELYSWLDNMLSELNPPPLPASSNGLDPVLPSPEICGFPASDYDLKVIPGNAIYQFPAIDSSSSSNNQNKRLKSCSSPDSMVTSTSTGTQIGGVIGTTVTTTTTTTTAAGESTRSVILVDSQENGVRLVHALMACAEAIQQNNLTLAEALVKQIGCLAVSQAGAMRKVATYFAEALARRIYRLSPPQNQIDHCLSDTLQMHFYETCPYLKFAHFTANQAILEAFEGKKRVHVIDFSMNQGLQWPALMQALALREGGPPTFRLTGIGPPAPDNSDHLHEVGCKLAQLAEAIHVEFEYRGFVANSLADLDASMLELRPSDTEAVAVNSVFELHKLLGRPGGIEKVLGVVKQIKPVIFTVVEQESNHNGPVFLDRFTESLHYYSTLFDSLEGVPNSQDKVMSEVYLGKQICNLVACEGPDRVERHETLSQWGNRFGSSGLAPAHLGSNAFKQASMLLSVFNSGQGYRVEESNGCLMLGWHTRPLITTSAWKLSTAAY

ABI4 [1] = target: T3, ABI4 (Arabidopsis thaliana, UniProt A0MES8 1-328); experiment: EMSA
T3 sequence (A0MES8 whole entry): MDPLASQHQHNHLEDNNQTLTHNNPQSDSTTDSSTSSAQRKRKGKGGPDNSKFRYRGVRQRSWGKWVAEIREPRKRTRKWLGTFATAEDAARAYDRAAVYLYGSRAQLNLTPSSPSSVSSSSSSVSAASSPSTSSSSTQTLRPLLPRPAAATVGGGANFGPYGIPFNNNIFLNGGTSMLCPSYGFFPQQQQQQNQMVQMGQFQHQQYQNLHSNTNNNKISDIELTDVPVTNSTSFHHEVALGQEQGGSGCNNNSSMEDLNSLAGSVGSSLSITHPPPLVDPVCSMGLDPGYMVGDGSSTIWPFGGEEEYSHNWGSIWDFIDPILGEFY

ABI4 [2] = target: T3, ABI4; experiment: competition

B1: GA2ox7 promoter G-box probe (dsDNA)
DNA 1: TTAGGACACAAACACGTGGTTTTTCATAGCATTGAGAAATTATAATAAAT
DNA 2: ATTTATTATAATTTCTCAATGCTATGAAAAACCACGTGTTTGTGTCCTAA
- binding result (HY5): binds

B2: EXP2 promoter probe (dsDNA)
DNA 1: GCGGATATGTAATACGTCCACGTGGCATAAAAGTA
DNA 2: TACTTTTATGCCACGTGGACGTATTACATATCCGC
- binding result (RGA): no binding
- binding result (ABI4 [1]): binds

B3: GA2ox7 promoter CCAC probe (dsDNA)
DNA 1: AAACACCCGACCCAATCTAAAAATCCCACCATAAGCCACCCAATTTATTCTTCTTCTTCA
DNA 2: TGAAGAAGAAGAATAAATTGGGTGGCTTATGGTGGGATTTTTAGATTGGGTCGGGTGTTT
- binding result (ABI4 [1]): binds

B4: GA2ox7 promoter CCAC mutant (m) (dsDNA)
DNA 1: AAACACCCGACCCAATCTAAAAATCTATACATAAGTATACCAATTTATTCTTCTTCTTCA
DNA 2: TGAAGAAGAAGAATAAATTGGTATACTTATGTATAGATTTTTAGATTGGGTCGGGTGTTT
- binding result (ABI4 [2]): no binding

From article PMC10504559
